Test results published in patent US20250263482A1 (SHIJIAZHUANG YILING PHARMACEUTICAL, published 2025).

B1: YL-G1-19-01 (antibody, human IgG1, kappa, V domains shown)
VH: QVQLQQSGAELVRPGTSVKVSCKASGYAFTNYLIEWVKQRPGQGLEWIGVINPGSGGTNYNEKFKGKATLTADKSSNTAYMQLSSLTSEDSAVYFCARVYYGNSFGYWGQGTLVTVSA
VL: DIVMTQSPSSLTVTAGEKVTMSCKSSQSLLNSGNQKNYLTWYQQKPGQPPKLLIYWASTRESGVPDRFTGSGSGTDFTLTISSVQAEDLAVYYCQNEYFYPFTFGSGTKLEIKR
notes: also called 1st generation chimeric antibody
B2: YL-G1-19-02 (antibody, human IgG1, kappa)
heavy: not shown
light: DIVMTQSPSSLTVTAGEKVTMSCKSSQSLLNSGNQKNYLTWYQQRPGQPPKLLIYWASTRESGVPVRFTGSGSGTDFTLTISSVQAEDLAVYYCQNAYIYPLTFGTGTKLELKRTVAAPSVFIFPPSDEQLKSGTASVVCLLNNFYPREAKVQWKVDNALQSGNSQESVTEQDSKDSTYSLSSTLTLSKADYEKHKVYACEVTHQGLSSPVTKSFNRGEC
notes: also called YL-G1-02; YL-G-19-02

Biological target: T1, human CLDN18.2 expressed on cells (human)
T1 construct: Tight junction membrane protein; also called huCLDN18.2
Assay: flow cytometry (geometric mean) on CLDN18.2-expressing 293T cells, Alexa Fluor 647 anti-human IgG Fc secondary
Method: CLDN18.2-expressing 293T cells and CLDN18.1-expressing 293T cells at a density of 2×10⁶ cells/ml in FACS buffer ([…]) were mixed with a dilution series ([…] in FACS buffer) of the chimeric antibodies, the reference antibody, or a IgG negative control (50 μL) in a 96-well V-bottom plate and incubated for 30 min on ice. After a wash with 200 μL/well FACS buffer, cells were resuspended in 30 μL/well secondary antibody Alexa Fluor® 647 AffiniPure Goat Anti-Human IgG, […] specific (Jackson, Cat. #109-605-098) and incubated for 20 min on ice. After three washes with 200 μL/well FACS buffer, cells were resuspended with 150 μl/well FACS buffer and subjected to FACS using BD LSR II Flow Cytometer (HTS). Geometric mean was used for data analysis and plots were made using Prism GraphPad.

Row | Binder | EC50 (read off the curve) [µg/mL]
1 | B1 | ~0.8
2 | B2 | ~0.6
